Results as given in US12364733B1, “Method for treating septic shock” (Inotrem, priority 2018, dated 2025).
Entries after “also recorded” stand apart in the source; their conditions may differ.

System: septic shock patients
Assay: Phase IIa clinical trial with nangibotide in septic shock patients (NCT03158948): safety, treatment emergent adverse events
Assay type: in vivo, human
Settings: for safety and tolerability: up to 3 mg/kg/h
Protocol: This was a European prospective, […], multinational study in 14 centers from 4 countries (France, Belgium, the Netherlands, and Spain). Patients were recruited from July 2017 to June 2018. The study was conducted in accordance with the principles set forth in the Declaration of Helsinki and subsequent amendments, the Guidelines of the International Conference on Harmonization on GCP, as well as the requirements of national drug and data protection laws and other applicable regulatory requirements.
This was a randomized, double-blind, two-stage, placebo-controlled study. As described in FIG. 7, the study was composed of 2 stages with a similar treatment regimen, in which 0.3, 1.0 or 3.0 mg/kg/h of nangibotide (corresponding to peptide LR12, having an amino acid sequence as set forth in SEQ ID NO: 9, also known as motrem) was tested versus placebo. All patients with a diagnosis of septic shock were considered for study participation. All potential study patients underwent standard care management procedures. Patients with evidence of septic shock according to the Sepsis-3 definition (Singer et al, JAMA 2016) were considered for inclusion (i.e., patients suffering from sepsis and having (i) persisting hypotension requiring vasopressors to maintain their mean arterial pressure ≥65 mm Hg and (ii) a serum lactate level >2 mmol/L (18 mg/dL) despite adequate volume resuscitation).
After screening for eligibility, patients were randomized to one of the treatment arms. Then, they received either a 5 mg/kg loading dose of nangibotide over 15 minutes followed by a continuous intravenous (i.v.) infusion of nangibotide or a matching placebo on top of standard of care. Treatment with study drug was initiated as early as possible, but no later than 24 hours after the onset of septic shock, defined by the start of vasopressor therapy. Patients were treated until 12 (±2) hours after the resolution of their septic shock (defined as vasopressor withdrawal) with a maximum treatment duration of 5 days (120 hours).
Stage 1 was performed to investigate ascending doses of nangibotide or placebo in a sequential design in cohorts of 4 patients (3:1 randomization). After completion of a cohort, safety and PK data were reviewed by an independent data safety monitoring board (DSMB) and the study could progress to the next cohort/stage. Stage 2 investigated 3 doses of nangibotide in a randomized, balanced, parallel-group design involving up to 3 doses of nangibotide and a placebo arm.
Adverse events (AEs) were coded using the MedDRA dictionary version 18.1. Treatment-emergent adverse events (TEAEs) were summarized and listed. Analysis was performed in 49 septic shock patients. The demographic and baseline characteristics were summarized in a descriptive fashion within each population: categorical variables were summarized by contingency tables (frequencies and percentages). sTREM-1 levels at day 1 were also described (mean, standard deviation, standard error, median, quartiles and range, minimum and maximum values). Mortality rates were reported by frequency and percentage. For continuous endpoints, i.e., the sequential organ failure assessment (SOFA), missing data were imputed using LOCF (Last Observation Carry-Forward). For time-to-event analyses, i.e., duration of invasive mechanical ventilation (IMV), duration of continuous renal replacement therapy (CRRT), survival, censored data techniques were utilized. In addition, a sensitivity analysis of time to event data (except survival) was performed using censoring at maximum limit for the corresponding observation period (i.e., either day 28 or day 90). […] The following comparisons were made: each nangibotide dose arm to placebo, all nangibotide doses combined versus placebo, and dose-response using an ordinal trend test. […]

## nangibotide (LQEEDAGEYGCM; TLT-1 peptide)
0.3 mg/kg/h
  All TEAEs leading to treatment withdrawal, % of all TEAEs: (0.0%)
  All TEAEs leading to treatment withdrawal, number: 0
  All TEAEs related to study drug (by investigator), % of all TEAEs: (0.0%)
  All TEAEs related to study drug (by investigator), number: 0
  All TEAEs with intensity severe, % of all TEAEs: (21.4%)
  All TEAEs with intensity severe, number: 12
  All serious TEAEs (including death), % of all TEAEs: (8.9%)
  All serious TEAEs (including death), number: 5
1.0 mg/kg/h
  All TEAEs leading to treatment withdrawal, % of all TEAEs: (0.0%)
  All TEAEs leading to treatment withdrawal, number: 0
  All TEAEs related to study drug (by investigator), % of all TEAEs: (7.1%)
  All TEAEs related to study drug (by investigator), number: 4
  All TEAEs with intensity severe, % of all TEAEs: (23.2%)
  All TEAEs with intensity severe, number: 13
  All serious TEAEs (including death), % of all TEAEs: (5.4%)
  All serious TEAEs (including death), number: 3
3.0 mg/kg/h
  All TEAEs leading to treatment withdrawal, % of all TEAEs: (0.0%)
  All TEAEs leading to treatment withdrawal, number: 0
  All TEAEs related to study drug (by investigator), % of all TEAEs: (0.0%)
  All TEAEs related to study drug (by investigator), number: 0
  All TEAEs with intensity severe, % of all TEAEs: (13.1%)
  All TEAEs with intensity severe, number: 8
  All serious TEAEs (including death), % of all TEAEs: (8.2%)
  All serious TEAEs (including death), number: 5
Highest dose
  adverse events related to nangibotide treatment at the highest dose: no adverse events related to nangibotide treatment were observed
human, in vivo
  AEs related to infections and cardiac disorders, nangibotide groups vs placebo: proportionally higher in the nangibotide groups
  incidence of atrial fibrillation and thrombocytopenia, nangibotide groups vs placebo: proportionally higher in the nangibotide groups
  number of SAEs/AEs and number of patients with SAEs/AEs, nangibotide groups vs placebo group: comparable
nangibotide-treated group, without obvious explanation
  suspected unexpected serious adverse reactions (SUSARs), number: Two
Septic shock patients, 0.3-3.0 mg/kg/h
  adverse events leading to treatment withdrawal: No adverse events (AEs) led to treatment withdrawal
Septic shock patients
  safety and tolerability: safe and well-tolerated
Septic shock patients, listed as nangibotide
  safety and tolerability: safe and well tolerated; also recorded: well-tolerated at all doses tested
